Strand notation (5' to 3'): a small letter for the sugar, then the base; units joined by * are phosphorothioate-linked, units joined directly phosphodiester-linked; [ ] holds rarer units or linkages, { } end groups; capitals alone tell only the bases. m = 2'-O-methyl; r = 2'-OH (RNA)
B1: G000482: TTR sgRNA modified sequence, Human, SEQ ID No. 89; guide sequence of CR003365 (nucleic acid)
guide: mU*mG*mU*rArGrArArGrGrGrArUrArUrArCrArArArGrGrUrUrUrUrArGrAmGmCmUmAmGmAmAmAmUmAmGmCrArArGrUrUrArArArArUrArArGrGrCrUrArGrUrCrCrGrUrUrArUrCrAmAmCmUmUmGmAmAmAmAmAmGmUmGmGmCmAmCmCmGmAmGmUmCmGmGmUmGmCmU*mU*mU*mU
B2: G000483: TTR sgRNA modified sequence, Human, SEQ ID No. 90; guide sequence of CR005298 (nucleic acid)
guide: mU*mC*mC*rArCrUrCrArUrUrCrUrUrGrGrCrArGrGrArGrUrUrUrUrArGrAmGmCmUmAmGmAmAmAmUmAmGmCrArArGrUrUrArArArArUrArArGrGrCrUrArGrUrCrCrGrUrUrArUrCrAmAmCmUmUmGmAmAmAmAmAmGmUmGmGmCmAmCmCmGmAmGmUmCmGmGmUmGmCmU*mU*mU*mU
B3: G000484: TTR sgRNA modified sequence, Human, SEQ ID No. 91; guide sequence of CR003367 (nucleic acid)
guide: mA*mG*mA*rCrArCrCrArArArUrCrUrUrArCrUrGrGrArGrUrUrUrUrArGrAmGmCmUmAmGmAmAmAmUmAmGmCrArArGrUrUrArArArArUrArArGrGrCrUrArGrUrCrCrGrUrUrArUrCrAmAmCmUmUmGmAmAmAmAmAmGmUmGmGmCmAmCmCmGmAmGmUmCmGmGmUmGmCmU*mU*mU*mU
B4: G000485: TTR sgRNA modified sequence, Human, SEQ ID No. 92; guide sequence of CR003336 (nucleic acid)
guide: mC*mC*mU*rCrCrUrCrUrGrCrCrUrUrGrCrUrGrGrArCrGrUrUrUrUrArGrAmGmCmUmAmGmAmAmAmUmAmGmCrArArGrUrUrArArArArUrArArGrGrCrUrArGrUrCrCrGrUrUrArUrCrAmAmCmUmUmGmAmAmAmAmAmGmUmGmGmCmAmCmCmGmAmGmUmCmGmGmUmGmCmU*mU*mU*mU
B5: G000570: TTR sgRNA modified sequence, Human, SEQ ID No. 111; guide sequence of CR003347 (nucleic acid)
guide: mC*mA*mU*rUrGrArUrGrGrCrArGrGrArCrUrGrCrCrUrGrUrUrUrUrArGrAmGmCmUmAmGmAmAmAmUmAmGmCrArArGrUrUrArArArArUrArArGrGrCrUrArGrUrCrCrGrUrUrArUrCrAmAmCmUmUmGmAmAmAmAmAmGmUmGmGmCmAmCmCmGmAmGmUmCmGmGmUmGmCmU*mU*mU*mU
B6: G000572: TTR sgRNA modified sequence, Human, SEQ ID No. 113; guide sequence of CR003385 (nucleic acid)
guide: mC*mC*mC*rCrUrArCrUrCrCrUrArUrUrCrCrArCrCrArGrUrUrUrUrArGrAmGmCmUmAmGmAmAmAmUmAmGmCrArArGrUrUrArArArArUrArArGrGrCrUrArGrUrCrCrGrUrUrArUrCrAmAmCmUmUmGmAmAmAmAmAmGmUmGmGmCmAmCmCmGmAmGmUmCmGmGmUmGmCmU*mU*mU*mU

Experiments:
[1] = system: TTR; experiment: TTR editing in primary cyno hepatocytes treated with LNP formulated Spy Cas9 mRNA (SEQ ID NO: 2) and sgRNAs (Tables 17, 18); format: cell-based, cynomolgus monkey; conditions: Table 17, LNP formulated Spy Cas9 mRNA (SEQ ID NO: 2) and sgRNA, 12.5 ng mRNA, 3.9 nM sgRNA, 72 hours
How it was run: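 Primary cynomolgus hepatocytes, 24 h after plating, dosed with LNPs (N:P about 4.5 or 6, mRNA:gRNA 1:1 by weight) pre-incubated 5 min at 37° C. in medium with 6% cyno serum, in an 8-point 2-fold dose response. Editing = indel/substitution reads over total reads by amplicon MiSeq sequencing.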

[2] = system: TTR; experiment: TTR editing in primary human hepatocytes treated with LNP formulated Spy Cas9 mRNA (SEQ ID NO: 2) and sgRNAs (Table 16); format: cell-based; conditions: LNP formulated Spy Cas9 mRNA (SEQ ID NO: 2) and sgRNA, 72 hours
Protocol: (§1) Primary liver hepatocytes. Primary human liver hepatocytes (PHH) and primary cynomolgus liver hepatocytes (PCH) (Gibco) were cultured per the manufacturer's protocol (Invitrogen, protocol 11.28.2012). In brief, the cells were thawed and resuspended in hepatocyte thawing medium with supplements (Gibco, Cat. CM7000) followed by centrifugation at 100 g for 10 minutes for human and 80 g for 4 minutes for cyno. The supernatant was discarded and the pelleted cells resuspended in hepatocyte plating medium plus supplement pack (Invitrogen, Cat. A1217601 and CM3000). Cells were counted and plated on Bio-coat collagen I coated 96-well plates (ThermoFisher, Cat. 877272) at a density of 33,000 cells/well for human or 60,000 cells/well for cyno (or 65,000 cells/well when assaying effects on TTR protein, described further below). Plated cells were allowed to settle and adhere for 6 or 24 hours in a tissue culture incubator at 37° C. and 5% CO2 atmosphere. After incubation cells were checked for monolayer formation and media was replaced with hepatocyte culture medium with serum-free supplement pack (Invitrogen, Cat. A1217601 and CM4000).
In general, the lipid nanoparticle components were dissolved in 100% ethanol with the lipid component of various molar ratios. The RNA cargos were dissolved in 25 mM citrate, 100 mM NaCl, pH 5.0, resulting in a concentration of RNA cargo of approximately 0.45 mg/mL. The LNPs were formulated with a lipid amine to RNA phosphate (N:P) molar ratio of about 4.5 or about 6, with the ratio of mRNA to gRNA at 1:1 by weight.
The LNPs were formed by microfluidic mixing of the lipid and RNA solutions using a Precision Nanosystems NanoAssemblr™ Benchtop Instrument, according to the manufacturer's protocol. A 2:1 ratio of aqueous to organic solvent was maintained during mixing using differential flow rates. After mixing, the LNPs were collected, diluted in water (approximately 1:1 v/v), held for 1 hour at room temperature, and further diluted with water (approximately 1:1 v/v) before final buffer exchange. The final buffer exchange into 50 mM Tris, 45 mM NaCl, 5% (w/v) sucrose, pH 7.5 (TSS) was completed with PD-10 desalting columns (GE). If required, formulations were concentrated by centrifugation with Amicon 100 kDa centrifugal filters (Millipore). The resulting mixture was then filtered using a 0.2 μm sterile filter. The final LNP was stored at −80° C. until further use.
(§2) To quantitatively determine the efficiency of editing at the target location in the genome, sequencing was utilized to identify the presence of insertions and deletions introduced by gene editing.
(§3) Primers were designed around the target site within the gene of interest (e.g. TTR), and the genomic area of interest was amplified.
(§4) Additional PCR was performed per the manufacturer's protocols (Illumina) to add chemistry for sequencing. The amplicons were sequenced on an Illumina MiSeq instrument. The reads were aligned to a reference genome (e.g., the human reference genome (hg38), the cynomologus reference genome (mf5), the rat reference genome (rn6), or the mouse reference genome (mm10)) after eliminating those having low quality scores. The resulting files containing the reads were mapped to the reference genome (BAM files), where reads that overlapped the target region of interest were selected and the number of wild type reads versus the number of reads which contain an insertion, substitution, or deletion was calculated.
(§5) The editing percentage (e.g., the “editing efficiency” or “percent editing” or “indel frequency”) is defined as the total number of sequence reads with insertions/deletions (“indels”) or substitutions over the total number of sequence reads, including wild type.
Lipid nanoparticle formulations of modified sgRNAs targeting human TTR and the cyno matched sgRNA sequences were tested on primary human hepatocytes and primary cyno hepatocytes in a dose response curve. Primary human and cyno hepatocytes were plated as described in Example 1. […]

[3] = system: TTR; experiment: TTR editing in primary human hepatocytes transfected with Spy Cas9 protein and sgRNAs (Table 12); format: cell-based; conditions: primary human hepatocytes transfected with Spy Cas9 protein (RNP) and sgRNAs
Protocol: as §1
Ribonucleotide formation was performed prior to electroporation or transfection of Spy Cas9 protein loaded with guide RNAs (RNPs) onto cells. For dual guide (dgRNAs), individual crRNA and trRNA was pre-annealed by mixing equivalent amounts of reagent and incubating at 95° C. for 2 min and cooling to room temperature. Single guide (sgRNAs) were boiled at 95° C. for 2 min and cooling to room temperature. The boiled dgRNA or sgRNA was incubated with Spy Cas9 protein in Optimem for 10 minutes at room temperature to form a ribonucleoprotein (RNP) complex.
For RNP lipoplex transfections, cells were transfected with Lipofectamine RNAiMAX (ThermoFisher, Cat. 13778150) per the manufacturer's protocol. Cells were transfected with an RNP containing Spy Cas9 (10 nM), individual guide (10 nM), tracer RNA (10 nM), Lipofectamine RNAiMAX (1.0 μL/well) and OptiMem. RNP formation was performed as described above.
Transfected cells were harvested post-transfection at 24, 48, or 72 hours. The genomic DNA was extracted from each well of a 96-well plate using 50 μL/well BuccalAmp DNA Extraction solution (Epicentre, Cat. QE09050) per manufacturer's protocol. All DNA samples were subjected to PCR and subsequent NGS analyses, as described herein.
as §2, §3, §4, §5
Guides in modified sgRNA format targeting human and/or cyno TTR were delivered to primary human hepatocytes and primary cyno hepatocytes as described in Example 1. […]

| Molecule | 12.5 ng mRNA, 3.9 nM sgRNA Avg % Edit [1] [%] | 12.5 ng mRNA, 3.9 nM sgRNA Avg % Edit [2] [%] | Avg % Deletion [3] [%] | Avg % Edit [3] [%] | Avg % Insert [3] [%] |
| --- | --- | --- | --- | --- | --- |
| B1 | 26.13 | 19.10 | 10.10 | 66.67 | 56.57 |
| B2 | 0.73 | 7.37 | 28.50 | 47.90 | 19.57 |
| B3 | 0.10 | 16.67 | 33.83 | 62.97 | 29.23 |
| B4 | 1.43 | 14.23 | 3.13 | 56.07 | 53.07 |
| B5 | 17.30 | 88.30 | – | – | – |
| B6 | 30.60 | 55.45 | – | – | – |
